From patent US20240173352A1

Key:
[1] = molecular target: HLA-A*02 (on target cells) (human); assay: cell-based or functional assay
[2] = molecular target: HLA-A*02 blocker antigen on beads (human); assay: cell-based or functional assay

HLA-A*02 PA2.1 ScFv LIR1 inhibitor (C1765) (from UniProt Q8NHL6 399-650) (receptor)
Emax shift of the CD19-CAR activator in Jurkat cells [1]: > 10 fold
inhibition of IFNγ induction in primary T cells (MSLN CAR), HeLa target cells expressing HLA-A*02 [1]: > 5 fold
inhibition of IFNγ induction in primary T cells (MSLN CAR), SiHa target cells expressing HLA-A*02 [1]: > 10 fold
shift of the CD19 CAR EMAX, NALM6 target cells [1]: > 5 fold
shift of the EGFR CAR (CT479) EMAX, Jurkat NFAT-luciferase, HLA-A*02 transduced HeLa target cells [1]: > 5 fold
shift of the EGFR CAR EMAX, HeLa target cells [1]: > 5 fold
shift of the EGFR CAR EMAX, Jurkat NFAT-luciferase, HCT116 target cells [1]: 1.8 fold
shift of the EGFR CAR EMAX, SiHa target cells [1]: > 4 fold
shift of the MSLN CAR EMAX, K562 target cells [1]: > 5 fold
suppression of pan HLA scFv CAR activators, HLA-A*02-positive T2 cells, E:T 1:2 [1]: < 25 fold
shift of the EGFR CAR EMAX, cell-free bead assay [2]: > 9 fold
shift of the MSLN CAR EMAX, cell-free bead assay [2]: > 12 fold
